Results as given in US20200277383A1 (DRAGONFLY THERAPEUTICS, published 2020).

Target: T1, EpCAM expressed on human cancer cell lines (H747, HCC827, HCT116) (human (human cancer cell lines), UniProt P16422 24-314)
T1 construct: also called Epithelial cell adhesion molecule; cell expressed EPCAM
T1 sequence: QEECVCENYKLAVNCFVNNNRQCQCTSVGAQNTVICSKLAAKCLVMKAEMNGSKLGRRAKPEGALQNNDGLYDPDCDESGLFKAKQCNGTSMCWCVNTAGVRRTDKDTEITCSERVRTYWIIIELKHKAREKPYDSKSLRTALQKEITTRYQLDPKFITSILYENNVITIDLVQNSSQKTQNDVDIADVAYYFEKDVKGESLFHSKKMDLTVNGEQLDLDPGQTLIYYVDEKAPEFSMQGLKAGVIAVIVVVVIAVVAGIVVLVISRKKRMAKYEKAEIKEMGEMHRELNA
Experiment: flow cytometry on H747 cells, MFI fold over background
Method: Human cancer cell lines expressing EPCAM were used to assess tumor antigen binding of TriNKETs derived from EPCAM targeting clone MT110 in F4 and F3′ formats. The human cell lines H747, HCC827 and HCT116 were used to assess binding of TriNKETs and mAb to cell expressed EPCAM. TriNKETs or mAb were diluted and incubated with the respective cells. Binding was detected using a fluorophore conjugated anti-human IgG secondary antibody. Cells were analyzed by flow cytometry, binding MFI to cell expressed EPCAM was normalized to human recombinant IgG1 stained controls to obtain fold over background values.

B1: A49-F4-TriNKET-MT110 (other)
heavy 1: EVQLLEQSGAELVRPGTSVKISCKASGYAFTNYWLGWVKQRPGHGLEWIGDIFPGSGNIHYNEKFKGKATLTADKSSSTAYMQLSSLTFEDSAVYFCARLRNWDEPMDYWGQGTTVTVSSASTKGPSVFPLAPSSKSTSGGTAALGCLVKDYFPEPVTVSWNSGALTSGVHTFPAVLQSSGLYSLSSVVTVPSSSLGTQTYICNVNHKPSNTKVDKKVEPKSCDKTHTCPPCPAPELLGGPSVFLFPPKPKDTLMISRTPEVTCVVVDVSHEDPEVKFNWYVDGVEVHNAKTKPREEQYNSTYRVVSVLTVLHQDWLNGKEYKCKVSNKALPAPIEKTISKAKGQPREPRVYTLPPCRDELTKNQVSLTCLVKGFYPSDIAVEWESNGQPENNYKTTPPVLVSDGSFTLYSKLTVDKSRWQQGNVFSCSVMHEALHNHYTQKSLSLSPGSGSGGGGSDIQMTQSPSSVSASVGDRVTITCRASQGISSWLAWYQQKPGKAPKLLIYAASSLQSGVPSRFSGSGSGTDFTLTISSLQPEDFATYYCQQGVSFPRTFGCGTKVEIKGGGGSGGGGSGGGGSGGGGSEVQLVESGGGLVKPGGSLRLSCAASGFTFSSYSMNWVRQAPGKCLEWVSSISSSSSYIYYADSVKGRFTISRDNAKNSLYLQMNSLRAEDTAVYYCARGAPMGAAAGWFDPWGQGTLVTVSS
heavy 2: EVQLLEQSGAELVRPGTSVKISCKASGYAFTNYWLGWVKQRPGHGLEWIGDIFPGSGNIHYNEKFKGKATLTADKSSSTAYMQLSSLTFEDSAVYFCARLRNWDEPMDYWGQGTTVTVSSASTKGPSVFPLAPSSKSTSGGTAALGCLVKDYFPEPVTVSWNSGALTSGVHTFPAVLQSSGLYSLSSVVTVPSSSLGTQTYICNVNHKPSNTKVDKKVEPKSCDKTHTCPPCPAPELLGGPSVFLFPPKPKDTLMISRTPEVTCVVVDVSHEDPEVKFNWYVDGVEVHNAKTKPREEQYNSTYRVVSVLTVLHQDWLNGKEYKCKVSNKALPAPIEKTISKAKGQPREPQVCTLPPSRDELTENQVSLTCLVKGFYPSDIAVEWESNGQPENNYKTTPPVLDSDGSFFLYSWLTVDKSRWQQGNVFSCSVMHEALHNHYTQKSLSLSPG
light: ELVMTQSPSSLTVTAGEKVTMSCKSSQSLLNSGNQKNYLTWYQQKPGQPPKLLIYWASTRESGVPDRFTGSGSGTDFTLTISSVQAEDLAVYYCQNDYSYPLTFGAGTKLEIKGRTVAAPSVFIFPPSDEQLKSGTASVVCLLNNFYPREAKVQWKVDNALQSGNSQESVTEQDSKDSTYSLSSTLTLSKADYEKHKVYACEVTHQGLSSPVTKSFNRGEC
notes: also called EPCAM-targeting F4-TriNKET
binding result: binds

B2: parental monoclonal antibody (mAb) targeting EPCAM (clone MT110) (antibody, V domains shown)
VH: VQLLEQSGAELVRPGTSVKISCKASGYAFTNYWLGWVKQRPGHGLEWIGDIFPGSGNIHYNEKFKGKATLTADKSSSTAYMQLSSLTFEDSAVYFCARLRNWDEPMDYWGQGTTVTVSS
VL: ELVMTQSPSSLTVTAGEKVTMSCKSSQSLLNSGNQKNYLTWYQQKPGQPPKLLIYWASTRESGVPDRFTGSGSGTDFTLTISSVQAEDLAVYYCQNDYSYPLTFGAGTKLEIKG
notes: detected with an anti-human IgG secondary antibody; also called parental mAb; Solitomab (MT110)
binding result: binds
